Measured values from the DeepSol protein solubility set.

Assay: soluble on expression in E. coli; label from the status in PepcDB or PDB records

| Sequence | soluble on expression in E. coli |
| --- | --- |
| MGSDKIHHHHHHMKFKERLQYLRLEKELSEIQLSKKVGISESVIRLYERGKLRIDLEHLHKLAAFFDVTPGLLLGTAFPHLPPEEALESYRVVNKLLEIRNEERKDEEDSPLFIDTLAQLAAESNKSDNKASNRQATIRAGVVAVYHKIVSAHSEANQEFIEDYWPVNTTVMQIYGHDISNYFYLRVHGDFMEPTIKNQSIVLAKRQVQVDNNDLAVVLYEQSPAAVKRLNRYEDKIILLCDNKAHPAQICEQEKCIILGKVLWKPK | not soluble |
| MVKKSEFERGDIVLVGFDPASGHEQQGAGRPALVLSVQAFNQLGMTLVAPITQGGNFARYAGFSVPLHCEEGDVHGVVLVNQVRMMDLHARLAKRIGLAADEVVEEALLRLQAVVE | soluble |
| MPPKKQQEVVKVQWGRPGNNLKTGIVGMPNVGKSTFFRAITKSVLGNPANYPYATIDPEEAKVAVPDERFDWLCEAYKPKSRVPAFLTVFDIAGLTKGASTGVGLGNAFLSHVRAVDAIYQVVRAFDDAEIIHVEGDVDPIRDLSIIVDELLIKDAEFVEKHLEGLRKITSRGANTLEMKAKKEEQAIIEKVYQYLTETKQPIRKGDWSNREVEIINSLYLLTAKPVIYLVNMSERDFLRQKNKYLPKIKKWIDENSPGDTLIPMSVAFEERLTNFTEEEAIEECKKLNTKSMLPKIIVTGYNALNLINYFTCGEDEVRSWTIRKGTKAPQAAGVIHTDFEKAFVVGEIMHYQDLFDYKTENACRAAGKYLTKGKEYVMESGDIAHWKAGKR | soluble |
| SNDAGAKTENTVDASPTPTNTPTDGDGDSAEEPVENTPAEPEPRPTPVEPEAMKTSDKAGAIAAAQYFVEVIEHSMHTSTTDLLEKYSYEKCSMCNEYKRTIAKRKDNGILVTNSQYEIKDLGPASLWGKKQLIWEVMLNLSVKEEYENFDESYTTEHSLLFYVTYLPDGWVLTEVTPASKK | not soluble |
| MDTKVVPKISEKICEKFANIINKKPQKKGKEYKIGVDLGTANVVVAVLNENNEPVAGAMKSAQVVKDGVVVDFVGAKEIVKRMVDFLNEELEGKLRVAACAIPPGTGEGVSKATKYVVEEAGLEVIKVVDEPTAAAKLLEIMDGIVVDIGGGTTGISVLKDGKVVYVADEPTGGTHFTLVLAGHFNISFEEAEKIKLDVQRQKLLTPILKPCMEKVAEIIKRHTFSFDNIDTIYLVGGASALHGLKEVVENTTRKKVIVPQYPIFITPLGIALSCEKG | not soluble |
| MKNIRNFSIIAHIDHGKSTLSDRIIQICGGLSDREMEAQVLDSMDLERERGITIKAQSVTLDYKASDGETYQLNFIDTPGHVDFSYEVSRSLAACEGALLVVDAGQGVEAQTLANCYTAMEMDLEVVPVLNKIDLPAADPERVAEEIEDIVGIDATDAVRCSAKTGVGVQDVLERLVRDIPPPEGDPEGPLQALIIDSWFDNYLGVVSLIRIKNGTLRKGDKVKVMSTGQTYNADRLGIFTPKQVDRTELKCGEVGWLVCAIKDIHGAPVGDTLTLARNPAEKALPGFKKVKPQVYAGLFPVSSDDYEAFRDALGKLSLNDASLFYEPESSSALGFGFRCGFLGLLHMEIIQERLEREYDLDLITTAPTVVYEVETTSREVIYVDSPSKLPAVNNIYELREPIAECHMLLPQAYLGNVITLCVEKRGVQTNMVYHGNQVALTYEIPMAEVVLDFFDRLKSTSRGYASLDYNFKRFQASDMVRVDVLINGERVDALALITHRDNSQNRGRELVEKMKDLIPRQQFDIAIQAAIGTHIIARSTVKQLRKNVLAKCYGGDISRKKKLLQKQKEGKKRMKQIGNVELPQEAFLAILHVGKDNK | soluble |
| MGSDKIHHHHHHMSDIELLETLAGTDQPRVMATIIHVEGSSYRKEGAMMLFQEDGTQVGLLSGGCLETDLTIKAQKVWQEQLPRTVVYDLSSEDDLSWGQGSGCNGTISVLLEPVDLKLRQHLKRVYDYLCAGKSVFHVKKLSTSGAVLEYAFILDESVYFGEWHSGHPVEWIRKIDENEEPLMFTHIYSPKERLIIFGAGPDVPPLVTFASNVGFYTVVTDWRPNQCEKHFFPDADEIIVDFPADFLRKFLIRPDDFVLIMTHHFQKDQEILHFLLEKELRYIGILGSKERTRRLLQNRKPPDHLYSPVGLSIDAQGPEEIAISIVAQLIQLIRSRKQASSPFSYLFQPESCKH | not soluble |
| MSLLNIKFTDNAVDYLKRREILDKILILITDDGGGKYSIQGGSCSMGAHFSIIWLDKVDPDYPVKIANEQNVKIYTSDFDKTMLGPNMVMDYNAGSLSLSSDEGLLDGSVDIGNGAALLKANKNVQMGINRQCEGHHHHHH | soluble |
| MSVKQEQCLIKVVSYDSNWPVQFEQEAERIKKALGSNCIEIHHIGSTSVPDLVAKPVIDMIPVVLDISKVDGANAAIRALGYEAKGEYGIPFRRYFQKGDNRLTHHAHVFELGNPEIERHLKFRDWMRMHPKDREAYARLKQELARRYSDDITAYCLGKEDFIATIDKKAGFNGLRMVKALTTREWDKVRHFRQFYFFDKAGLSDPYTWTFEHNAHVHFVLFQGSEITGYAHLQLWSHNRAALRIIVIDELKRNHQYGTRFLALCEKWLKSQGYQSLHVESSPDALKFYRNNGYIDMPFDDPDGYEGDPRDTAVGKIL | not soluble |
| MSLSFNADEVRFLIDNLPDIDAATGDLALTKKTMISDVAALRARFGEHGRAVAELAGARRSVAGKLPVDWLMCHDSAQQATPMQVSGVRARRLVTALGEGTTAVDVTCSIGTEGHAVGQVGMGYIGSDLDQARLLMARYNLGGGVDKHPPHLLRADALAPAVTGADVIIADPARRAGGRRITDPAQLLPPLPDLLTAWEGHAMAVKCAPGLDFSGWTGLVSLVSVDGGVKEACLYTPDLADGETREAVILRGDRMDRITDALDDAPGEQLAREPGEFIIDPDGAVVRAGLVRHYAVREGLWMLDERIAYLTGDRIPAGTSGFRFIEQVPLKKLKGALTAHGAGSVEILVRGVDVDPDQLRKKLGLKGDRAMSVVITRIGSAGVALVCGAREWNGEGHHHHHH | soluble |
| SIVADSECRAELKDYLRFAPGGVGDSGPGEEQRESRARRGPRGPSAFIPVEEVLREGAESLEQHLGLEALMSSGRVDNLAVVMGLHPDYFTSFWRLHYLLLHTDGPLASSWRHYIAIMAAARHQCSYLVGSHMAEFLQTGGDPEWLLGLHRAPEKLRKLSEINKLLAHRPWLITKEHIQALLKTGEHTWSLAELIQALVLLTHCHSLSSFVFGCGILPEGDADGSPAPQAPTPPSEQSSPPSRDPLNNSGGFESARDVEALMERMQQLQESLLRDEGTSQEEMESRFELEKSESLLVTPSADILEPSPHPDMLCFVEDPTFGYEDFTRRGAQAPPTFRAQDYTWEDHGYSLIQRLYPEGGQLLDEKFQAAYSLTYNTIAMHSGVDTSVLRRAIWNYIHCVFGIRYDDYDYGEVNQLLERNLKVYIKTVACYPEKTTRRMYNLFWRHFRHSEKVHVNLLLLEARMQAALLYALRAITRYMT | not soluble |
| MATPFDGSNDATESRLLQLGRERLDPILAQQSDALQTQLSNQGIKLGSAAYDRAMTQQALHANDATDQLILQGHGQAFAEGQAIRNQPINEITALLSGSQVSNPQAAAYTPSTIPTTDNAGIIANNYQQKMDAYNAQMSQASSLAGGLFGLGGKLISLSDDDAKKDKERLADITPEMGLWKFHYKGEPADAPMRLGLMASEVEKVRPDAVSRRPDGYRQVDYGKALSLGALEHHHHHH | not soluble |
| MRFLHTADWQLGMTRHFLNGEAQPRYSASRREAVASLGEIAKRTGAEFVVVSGDVFEHNQLAPRDVSQSLEAMRAIGVPVYLLPGNHDPLDASSVYTSALFVAERPDNVVVLDRAGVHEVRPGVQIVAAPWRSKAPTSDLIGDVLADLPADGVTRVLVGHGGVDILDPDKNKPSLIRMAAVEDALARGAVHYVALGDKHSRTEVGGSGRVWYSGSPEVTNYDDIESDPGHVLVVDIDENDARRAVRVESEKVGRWRFVTLRRSVDTDRDIADLDLNLDLLDDKERTVVRLALTGSLTVTDKAKLDECLDRYARLFAALTTWERHTDIAVIPADGEFDDLGIGGFAAAAVDELVATARSEAAEAEDARAALGLLLRLVDRDKGAALEHHHHHH | soluble |
| MGSDKIHHHHHHMTFILNSQNVFNYLLEKGLCNQSEQPPAKIEQLTAKNFNLLVTLPGDRKLLVKQERHNPEGKAAGEFLIEWRIQEFLQQFPNLSNYRSFLPEVLHFDVENSIIVFKYFDDYRDLMDFYTKGNSFNIEIATAIGNILGTIHRDTFNRQEYQEFFTKNSDNLMGDQVLHLVRRLERVEPEIFGIVPSDGLKFFALYQRYDSLGQAIAELGNAVTPSCLTHNDLKLNNILLHKDWQDSSNNIVRLIDWERSAWGDPAFDLGTLISSYVQIWLGSLVISNSLSIEESLRLAITPLEVLQPSISTLTQAYLKTFPEILDHRSDFLQRVVQFTGFTLIQQIQAMIQYQKSFGNMGIAMLQVAKTLLSRPVQSMPTIFGAAAVELGHLNNSPV | not soluble |
| MENISDLWNSALKELEKKVSKPSYETWLKSTTAHNLKKDVLTITAPNEFARDWLESHYSELISETLYDLTGAKLAIRFIIPQSQAEEDIDLPPVKPNPAQDDSAHLPQSMLNPKYTFDTFVIGSGNRFAHAASLAVAEAPAKAYNPLFIYGGVGLGKTHLMHAIGHYVIEHNPNAKVVYLSSEKFTNEFINSIRDNKAVDFRNKYRNVDVLLIDDIQFLAGKEQTQEEFFHTFNALHEESKQIVISSDRPPKEIPTLEDRLRSRFEWGLITDITPPDLETRIAILRKKAKAEGLDIPNEVMLYIANQIDSNIRELEGALIRVVAYSSLINKDINADLAAEALKDIIPNSKPKIISIYDIQKAVGDVYQVKLEDFKAKKRTKSVAFPRQIAMYLSRELTDSSLPKIGEEFGGRDHTTVIHAHEKISKLLKTDTQLQKQVEEINGILKLEHHHHHH | not soluble |
| MNKLITVIRDFSYSVYNWCYETVIGENTRKYKMTWKVPKESLKIIVNKNADARMQRELENRTAKDEANALTSRRRVFGSYALIGTQRAEFIQFRQIKHIDITNASLDFLYNLKQLKHDNLANFYGIQLNDDLNTMTILHALVERGTLEEFCLDRDFGMDETFKSAFMRDILKGLQYLHLSPVAYHGHLHAATCLIDINWVLKIALYGVTNFVCDNFDAENITMPDRSDYTISYAQYVCFPPEHIREYDATGKLPTRFVRGSKQGDIYCVGMIFYMMIEREDPYRLIHSVERPGSGLMMEILDHNLMPFISNNETQEDTLLDKCKECWNRDPEKRPTIENLRNAIAICYADSKGNLIDQMIRMNEKYADELETLVAARSADLALAQMQTMRLLNEMLPASIAKDLKNGVIAPARSYASATVMFVQICDFIVILKRRPPKEVIGFLNDIFDQFDTVIKRHDVETTGETYMVASGVPNENEGRHVFEVAEMSLEIRAISLSYTLENDKNYKLRVRIGFHAGPIAAGVIGIKNPRYCLFGDTVNFASRMQSNCPPLQIQTSEITARMLLATHEYKLVKRGIVHVKGKGEVNCYWLNEHIHKDEEIEESGTISHPLES | not soluble |
| MVSYKARISLSGTEHRVVDRVCNEIKEIASRTGVEIHGPMPLPTKRLVVPVRKSPDGEGTNTWDHWEMRIHKRLIDVDADERTLRQLMRIPIPDGVQIEIQIKS | soluble |
| MNEFEKLLEESIASPEEFKRGQVVKGRVVKVAGDTVFVDIGYKTEAVISKEEVPEVQEGQEIEAVLVRFSPRIPNPVLSVKPLQEKKELEKLKEAYLNKSDVVGKIEKKVKGGFIVDFEGVKAFLPMSQAGKKLKEGQVLTFKVLDFKLDSKRPQIIVSHKAYLDEQREKRKQELLNTLKPGDVVEGKVVKIDPNKGVTLVIEGVLRAFLPKEELSWGRDKNPYNYTDVGETLKVKVKRVDKQKGFIIVSLRELKGNPWEKFLKEHKEGDVIEGRVVAVTPKGVVVEVMEGVEGFVPEEELAWEGKPEFKKGDLVKAKIMKIDPKRRRLILSIKRAQPRPWEIFLQKHPVGSKVKGKVIKIEGSRAIVELEDGVKGVIHRSDLSWTRPKRVEEVLKEGEEREFAVLGLEGKYVKLGLKQLTENPWEKVKEKYKVGDVVKLPVKELAPFGAFLEFPEGVEGLLPFSEVPRHIRIRKGQEYEVKIIDINPKEGKITFSINALYGEKPEEKEEKVEEVTTATTGGFKLGEILKKRWKL | not soluble |
